Test results taken from patent US20220348667A1 (LUXEMBOURG INSTITUTE OF HEALTH LIH, published 2022).

T1: human ACKR2 stably expressed on HEK293T cells (HEK.ACKR2) (human, UniProt O00590 1-384)
T1 construct: whole, on cells; also called hACKR2; HEK.hACKR2
T1 sequence (looked up): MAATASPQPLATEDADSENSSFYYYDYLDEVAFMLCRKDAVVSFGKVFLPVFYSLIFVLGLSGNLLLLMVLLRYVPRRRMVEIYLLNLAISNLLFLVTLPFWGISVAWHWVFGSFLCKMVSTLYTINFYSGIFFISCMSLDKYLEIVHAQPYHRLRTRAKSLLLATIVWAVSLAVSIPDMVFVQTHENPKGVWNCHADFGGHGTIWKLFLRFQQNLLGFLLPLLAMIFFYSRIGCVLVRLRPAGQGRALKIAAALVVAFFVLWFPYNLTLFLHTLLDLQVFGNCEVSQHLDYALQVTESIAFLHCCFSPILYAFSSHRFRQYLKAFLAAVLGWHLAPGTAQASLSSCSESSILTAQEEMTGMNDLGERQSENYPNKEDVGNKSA


What was measured:
[1] = molecular target: murine ACKR2 stably overexpressed on HEK293T cells (HEK.mACKR2) (mouse) (UniProt O08707); assay: flow cytometry binding competition on HEK.mACKR2 cells, CCL5-AF647 (30 nM) as competitor
[2] = molecular target: T1, human ACKR2 stably expressed on HEK293T …; assay: flow cytometry, displacement of CXCL10-Cy5 from HEK.ACKR2 cells by unlabelled chemokine (50 nM)
Experimental: HEK293T and HEK-ACKR2 cells were incubated with CXCL10-Cy5 at indicated concentrations for 45 minutes at 37° C., then washed twice with FACS buffer (PBS, 1% BSA, 0.1% NaN₃). Dead cells were excluded using Zombie Green viability dye (BioLegend). ACKR2-negative HEK293T cells were used to evaluate non-specific binding of CXCL10-Cy5. For binding competition with unlabelled chemokines (50 nM), the signal obtained for CXCL10-Cy5 in the absence of unlabelled chemokines was used to define 100% binding. Ligand binding was quantified by mean fluorescence intensity on a BD FACS Fortessa cytometer (BD Biosciences).

Sequence of murine ACKR2 stably overexpressed on HEK293T cells (HEK.mACKR2) (mouse) (O08707 whole entry): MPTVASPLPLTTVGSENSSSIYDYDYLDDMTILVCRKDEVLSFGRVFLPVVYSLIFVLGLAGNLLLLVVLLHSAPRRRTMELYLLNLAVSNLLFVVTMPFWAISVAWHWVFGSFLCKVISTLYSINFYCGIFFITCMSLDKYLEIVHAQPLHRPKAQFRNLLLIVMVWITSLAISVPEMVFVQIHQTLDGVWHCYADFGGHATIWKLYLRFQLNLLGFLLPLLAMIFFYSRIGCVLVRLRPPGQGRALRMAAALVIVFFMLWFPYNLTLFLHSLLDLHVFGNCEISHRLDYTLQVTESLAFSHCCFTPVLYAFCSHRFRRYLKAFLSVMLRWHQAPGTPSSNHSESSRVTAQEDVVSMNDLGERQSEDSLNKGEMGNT

% displacement of CCL5-AF647 at 50 µg/ml antibody [1] [%] | binding result [2] | Molecule
> 80 | – | polyclonal Goat anti-mACKR2 (ab1656, Abcam) (antibody)
– | binds | CCL5 (unlabelled, PeproTech) (ligand, human, UniProt P13501 24-91, looked up) SPYSSDTTPCCFAYIARPLPRAHIKEYFYTSGKCSNPAVVFVTRKNRQVCANPEKKWVREYINSLEMS
